Results as given in patent publication US20180134769A1 (NATIONAL RESEARCH COUNCIL OF CANADA, published 2018).
Where two headings read alike, the source gives them in different places.

Columns and labels:
[1] = target: T1, Clostridium difficile toxin B (TcdB) (Clostridium difficile strain 10463, UniProt P18177 1-2366); experiment: ELISA, antigen coated
T1 construct: range 1-2366

TcdB-RBD-f1 [2] = target: T2, TcdB-RBD-f1 (Clostridium difficile, UniProt P18177 2286-2366); experiment: ELISA, antigen coated
T2 construct: range 2286-2366

[3] = target: T3, Clostridium difficile toxin A (TcdA) (Clostridium difficile strain 10463, UniProt P16154 1-2710); experiment: SPR (BIACORE 3000); TcdA immobilized on CM5 chip, monomeric VHH injected
T3 construct: range 1-2710

[4] = target: T3, Clostridium difficile toxin A (TcdA); experiment: ELISA, immobilized TcdA, serial dilution of VHH, rabbit anti-His6 IgG-HRP
[5] = target: T3, Clostridium difficile toxin A (TcdA); experiment: SPR, TcdA immobilized; same value as in Table 1
[6] = target: T3, Clostridium difficile toxin A (TcdA); experiment: SPR (BIACORE 3000); 10,287 RUs of TcdA immobilized, VHH injected
[7] = target: T3, Clostridium difficile toxin A (TcdA)
TcdA-RBD-f1 = target: T4, TcdA-RBD-f1 (Clostridium difficile, UniProt P16154 2304-2710); experiment: ELISA, antigen coated
T4 construct: range 2304-2710

TcdB-RBD-f1 [8] = target: T2, TcdB-RBD-f1; experiment: SPR (BIACORE 3000); VHH immobilized on CM5 chip, TcdB-RBD-f1 injected
[9] = target: T3, Clostridium difficile toxin A (TcdA); experiment: ELISA, antigen coated
[10] = target: T3, Clostridium difficile toxin A (TcdA); experiment: ELISA, TcdA coated at 5 ug/ml, rabbit anti-His6 IgG-HRP
[11] = target: T3, Clostridium difficile toxin A (TcdA); remark: listed apart in the source

B1: A19.2 (VHH)
VHH: QVKLEESGGGLVQPGGSLRLSCAASGRTLSSYIVAWFRQAPGKEREFVAGISRRGGNSAYVESVKGRFTISRDNAKNTVYLQMNSLKPEDTAVYYCAADGSVAGWGRRSVSVSSYDYWGQGTQVTVSS
notes: also called anti-TcdA VHH A19.2
binding result [1]: no binding
binding result (TcdB-RBD-f1 [2]): no binding
Kd [3]: 290 nM
koff [3]: 0.0039 s⁻¹
kon [3]: 14000 M⁻¹ s⁻¹
EC50 (read off the curve) [4]: ~0.04 µg/mL
Kd [5]: 290 nM
koff [5]: 0.0039 s⁻¹
kon [5]: 14000 M⁻¹ s⁻¹

B2: A26.8m (VHH)
VHH: QVKLEESGGGLVQAGGSLRLSCAASERTFSRYPVAWFRQAPGAEREFVCVISSTGTSTYYADSVKGRFTCSRDNAKVTVYLQMNNLKREDTAVYFCAVNSQRTRLQDPNEYDYWGQGTQVTVSS
notes: also called mutant A26.8; disulfide mutant of A26.8
Kd [6]: 28 nM
koff [6]: 0.028 s⁻¹
kon [6]: 1e+06 M⁻¹ s⁻¹
koff [7]: 0.019 s⁻¹

B3: A26.8 (VHH)
VHH: QVKLEESGGGLVQAGGSLRLSCAASERTFSRYPVAWFRQAPGAEREFVAVISSTGTSTYYADSVKGRFTISRDNAKVTVYLQMNNLKREDTAVYFCAVNSQRTRLQDPNEYDYWGQGTQVTVSS
notes: also called anti-TcdA VHH A26.8
binding result (TcdB-RBD-f1 [2]): no binding
binding result (TcdA-RBD-f1): binds

B4: B5.2 (VHH)
VHH: QVQLVESGGGLVQPGGSLRLSCAASGNIFSINTMGWYRQAPGKQLELVAAITSGGTTSYTDSVEGRFTISRDNAKNAVYLQMNSLKAEDTAVYYCNTVKVVGGRLDNPDYWGQGTQVTVSS
notes: llama VHH monomer; also called anti-TcdB VHH B5.2
Kd (TcdB-RBD-f1 [8]): 100 nM
koff (TcdB-RBD-f1 [8]): 0.0002 s⁻¹
kon (TcdB-RBD-f1 [8]): 2000 M⁻¹ s⁻¹
binding result [9]: binds

B5: B15.5 (VHH)
VHH: QVQLVESGGDLVQAGGSLRLSCAASGSISRISTMGWYRQAPGKQRELVATISTGGTTNYAESVKGRFTVSRDNAKNTMYLQMNSLKPEDTAVYYCAAGWKVVRGSLEYEYSGQGTQVTVSS
notes: llama VHH monomer; also called anti-TcdB VHH B15.5
Kd (TcdB-RBD-f1 [8]): 357 nM
koff (TcdB-RBD-f1 [8]): 0.001 s⁻¹
kon (TcdB-RBD-f1 [8]): 2800 M⁻¹ s⁻¹

B6: A5.1 (VHH)
VHH: QVKLEESGGGLVQAGGSLRLSCAASGRTFSMYRMGWFRQAPGKEREFVGVITRNGSSTYYADSVKGRFTISRDNAKNTVYLQMNSLKPEDTALYYCAATSGSSYLDAAHVYDYWGQGTQVTVSS
notes: also called anti-TcdA VHH A5.1
EC50 (read off the curve) [10]: ~7 nM
binding result [1]: no binding
binding result (TcdB-RBD-f1 [2]): no binding
Kd [3]: 3 nM
koff [3]: 0.005 s⁻¹
kon [3]: 1.6e+06 M⁻¹ s⁻¹
Kd [5]: 3 nM
koff [5]: 0.005 s⁻¹
kon [5]: 1.6e+06 M⁻¹ s⁻¹

B7: A5.1m (VHH)
VHH: QVKLEESGGGLVQAGGSLRLSCAASGRTFSMYRMGWFRQAPGKEREFVCVITRNGSSTYYADSVKGRFTCSRDNAKNTVYLQMNSLKPEDTALYYCAATSGSSYLDAAHVYDYWGQGTQVTVSS
notes: also called mutant A5.1; disulfide mutant of A5.1
Kd [6]: 17 nM
koff [6]: 0.016 s⁻¹
kon [6]: 950000 M⁻¹ s⁻¹
koff [7]: 0.013 s⁻¹

B8: A5.1p (other)
VHH: QVKLEESGGGLVQAGGSLRLSCAASGRTFSMYRMGWFRQAPGKEREFVGVITRNGSSTYYADSVKGRFTISRDNAKNTVYLQMNSLKPEDTALYYCAATSGSSYLDAAHVYDYWGQGTQVTVSS
EC50 (read off the curve) [11]: ~4 nM

B9: A24.1 (VHH)
VHH: QVQLVESGGGLVQAGGSLRLSCAASIRSFSNRNMGWFRQPPGKEREFVAGISWGGGSTRYADSVKGRFTISRDNAKKTVYLQMNSLKPEDTAVYYCAAEFGHNIATSSDEYDYWGQGTQVTVSS
notes: also called anti-TcdA VHH A24.1
binding result [1]: no binding
binding result (TcdB-RBD-f1 [2]): no binding
Kd [3]: 260 nM
koff [3]: 0.016 s⁻¹
kon [3]: 60000 M⁻¹ s⁻¹
Kd [5]: 260 nM
koff [5]: 0.016 s⁻¹
kon [5]: 60000 M⁻¹ s⁻¹

B10: A4.2m (VHH)
VHH: QVKLEESGGGLVQAGGSLRLSCAASGRTFNTLSMGWFRQAPGKEREFVCAVSRSGGSTYYADSVKGRFTCSRDNAKNTVYLQMNSLKPEDTAVYYCAAAATKSNTTAYRLSFDYWGQGTQVTVSS
notes: also called mutant A4.2; disulfide mutant of A4.2
Kd [6]: 20 nM
koff [6]: 0.019 s⁻¹
kon [6]: 930000 M⁻¹ s⁻¹
koff [7]: 0.016 s⁻¹

B11: A4.2 (VHH)
VHH: QVKLEESGGGLVQAGGSLRLSCAASGRTFNTLSMGWFRQAPGKEREFVAAVSRSGGSTYYADSVKGRFTISRDNAKNTVYLQMNSLKPEDTAVYYCAAAATKSNTTAYRLSFDYWGQGTQVTVSS
notes: also called anti-TcdA VHH A4.2
binding result [1]: no binding
binding result (TcdB-RBD-f1 [2]): no binding
Kd [3]: 24 nM
koff [3]: 0.016 s⁻¹
Kd [5]: 24 nM
koff [5]: 0.016 s⁻¹
kon [5]: 670000 M⁻¹ s⁻¹

B12: A20.1 (VHH)
VHH: QVQLVESGGGLAQAGGSLRLSCAASGRTFSMDPMAWFRQPPGKEREFVAAGSSTGRTTYYADSVKGRFTISRDNAKNTVYLQMNSLKPEDTAVYYCAAAPYGANWYRDEYAYWGQGTQVTVSS
notes: also called anti-TcdA VHH A20.1
EC50 (read off the curve) [10]: ~1 nM
binding result [1]: no binding
binding result (TcdB-RBD-f1 [2]): no binding
Kd [3]: 2 nM
koff [3]: 0.0016 s⁻¹
kon [3]: 820000 M⁻¹ s⁻¹
Kd [5]: 2 nM
koff [5]: 0.0016 s⁻¹
kon [5]: 820000 M⁻¹ s⁻¹

B13: A20.1m (VHH)
VHH: QVQLVESGGGLAQAGGSLRLSCAASGRTFSMDPMAWFRQPPGKEREFVCAGSSTGRTTYYADSVKGRFTCSRDNAKNTVYLQMNSLKPEDTAVYYCAAAPYGANWYRDEYAYWGQGTQVTVSS
notes: also called mutant A20.1; disulfide mutant of A20.1
Kd [6]: 9.2 nM
koff [6]: 0.0059 s⁻¹
kon [6]: 640000 M⁻¹ s⁻¹
koff [7]: 0.0059 s⁻¹

B14: A20.1p (other)
VHH: QVQLVESGGGLAQAGGSLRLSCAASGRTFSMDPMAWFRQPPGKEREFVAAGSSTGRTTYYADSVKGRFTISRDNAKNTVYLQMNSLKPEDTAVYYCAAAPYGANWYRDEYAYWGQGTQVTVSS
EC50 (read off the curve) [11]: ~1 nM

B15: B13.6 (VHH)
VHH: QVKLEESGGGLVQAGGSLRLSCSASGRTFSSGVMGWFRQAPGKQRELVAAITTGGSTSYTDSVKGRFTISRDNAKNTVYLQMNSLKPEDTAVYYCNSVAVVGGVIKSPDYWGQGTQVTVSS
notes: llama VHH monomer; also called anti-TcdB VHH B13.6
Kd (TcdB-RBD-f1 [8]): 400 nM
koff (TcdB-RBD-f1 [8]): 0.001 s⁻¹
kon (TcdB-RBD-f1 [8]): 2500 M⁻¹ s⁻¹
